± gives the standard deviation of the averaged measurements.
B1: library; a variant is named by its letters at N, in order (parent)
chain: GCUGUCACCGAGAAACUGUGAAGUAUAUCUUAAACCUGGGCACUUAAAAGAUAUAUGGAGUUAGUAGUGCAACCUGCUCGGUCUGAUGAGUCCNNNNNNGGACGAAACAGC

Legend:
cyclic di-GMP [1] = variants of: B1; test: FACS-Seq fitted mean relative fluorescence mCherry/BFP without ligand (log10 relative fluorescence); HEK293T; ligand: cyclic di-GMP (c-di-GMP-II aptamer); higher = higher reporter protein expression; conditions: ligand present: no
How it was run: (§1)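 With or without ligand for 48 h, enriched HEK293T libraries carrying a lentiviral ribozyme-switch mCherry reporter and EF1α-BFP were sorted into 6 mCherry/BFP bins. Bin genomic DNA was amplified by PCR, barcoded and sequenced on MiSeq. Fluorescence was taken from normal fits to the resulting bin counts. Each fitted mean of log10(mCherry/BFP) was scaled to five spiked-in control ribozymes.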

cyclic di-GMP [2] = variants of: B1; test: normalized RNA/DNA level without ligand (relative to sTRSVctl = 100) (log10 (% of sTRSVctl)); HEK293T; ligand: cyclic di-GMP (c-di-GMP-II aptamer); higher = less ribozyme self-cleavage, higher mRNA level; conditions: reporter: mCherry (pCS4076), ligand present: no
Experimental: (§2)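 Hammerhead (sTRSV) ribozyme switch libraries with a ligand aptamer grafted on stem I and a randomized N4-6 loop II, cloned into the 3' UTR of mCherry and transiently transfected into HEK293T cells; RNA-Seq 72 h post transfection with ligand added 1 h before transfection; RNA read count / plasmid DNA read count normalized to the non-cleaving sTRSVctl (x100), log10; sequences with >100 DNA reads. FACS-Seq: lentiviral library sorted into 6 bins after 48 h ligand, log-normal fit mean of mCherry/BFP scaled to controls. Printed sequences are partial switch sequences.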

cyclic di-GMP [3] = variants of: B1; test: FACS-Seq fitted mean relative fluorescence mCherry/BFP with ligand (log10 relative fluorescence); HEK293T; ligand: cyclic di-GMP (c-di-GMP-II aptamer); ligand concentration (+) FACS-Seq: 1 mM; higher = higher reporter protein expression; conditions: ligand present: yes
How it was run: as §1

cyclic di-GMP [4] = variants of: B1; test: normalized RNA/DNA level with ligand (relative to sTRSVctl = 100) (log10 (% of sTRSVctl)); HEK293T; ligand: cyclic di-GMP (c-di-GMP-II aptamer); ligand concentration (+) RNA-Seq: 1 mM; higher = less ribozyme self-cleavage, higher mRNA level; conditions: reporter: mCherry (pCS4076), ligand present: yes
Experimental: as §2

Variant	FACS-Seq fitted mean (log10) (cyclic di-GMP [1])	normalized RNA/DNA level without ligand (log10) (cyclic di-GMP [2])	FACS-Seq fitted mean (log10) (cyclic di-GMP [3])	normalized RNA/DNA level with ligand (log10) (cyclic di-GMP [4])
CGUCUU	-0.365 ± 0.028	1.49 ± 0.033	-0.103 ± 0.064	1.66 ± 0.12
GCGAUA	-0.474 ± 0.0058	1.44 ± 0.11	-0.154 ± 0.057	1.61 ± 0.12
AGCAUG	-0.472 ± 0.038	1.53 ± 0.031	-0.236 ± 0.053	1.71 ± 0.055
GCCGUG	-0.238 ± 0.056	1.6 ± 0.097	0.0457 ± 0.053	1.8 ± 0.06
CUUGAA	-0.585 ± 0.066	1.35 ± 0.11	-0.291 ± 0.046	1.55 ± 0.086
UGAUAG	-0.125 ± 0.093	1.696 ± 0.015	0.191 ± 0.081	1.83 ± 0.12
CGCCUC	0.0848 ± 0.15	1.713 ± 0.011	0.399 ± 0.0065	1.85 ± 0.067
CGGGAA	-0.636 ± 0.012	1.33 ± 0.033	-0.472 ± 0.015	1.36 ± 0.081
AGUUUA	-0.489 ± 0.04	1.53 ± 0.068	-0.25 ± 0.013	1.72 ± 0.12
ACUAAG	-0.34 ± 0.089	1.5 ± 0.12	-0.165 ± 0.11	1.71 ± 0.026
UGUAGU	0.04 ± 0.16	1.66 ± 0.051	0.343 ± 0.011	1.86 ± 0.12
AAAUAU	-0.442 ± 0.052	1.6004 ± 0.00073	-0.152 ± 0.097	1.78 ± 0.11
AGCAAA	-0.531 ± 0.032	1.48 ± 0.042	-0.277 ± 0.1	1.64 ± 0.14
UAUACU	0.0993 ± 0.048	1.722 ± 0.013	0.304 ± 0.012	1.85 ± 0.066
GACGAA	-0.377 ± 0.016	1.43 ± 0.12	-0.01 ± 0.049	1.65 ± 0.085
CGAGCG	-0.783 ± 0.013	1.81 ± 0.023	-0.5474 ± 0.004	1.9 ± 0.12
GAGAGA	-0.796 ± 0.023	1.61 ± 0.037	-0.733 ± 0.053	1.72 ± 0.086
CUUGGA	-0.381 ± 0.03	1.55 ± 0.031	-0.107 ± 0.044	1.73 ± 0.16

Variant	FACS-Seq fitted mean (log10) (cyclic di-GMP [1])	normalized RNA/DNA level without ligand (log10) (cyclic di-GMP [2])	FACS-Seq fitted mean (log10) (cyclic di-GMP [3])	normalized RNA/DNA level with ligand (log10) (cyclic di-GMP [4])
CUUUAA	-0.402 ± 0.005	1.32 ± 0.094	-0.039 ± 0.028	1.54 ± 0.087
UAACGU	-0.388 ± 0.07	1.51 ± 0.095	-0.125 ± 0.05	1.71 ± 0.12
GCGGUU	-0.562 ± 0.021	1.6 ± 0.044	-0.254 ± 0.0055	1.75 ± 0.11
UGAGUC	-0.147 ± 0.039	1.7273 ± 0.0012	0.117 ± 0.074	1.87 ± 0.14
ACGAGA	-0.604 ± 0.02	1.29 ± 0.12	-0.453 ± 0.01	1.45 ± 0.067
ACGAUG	-0.381 ± 0.017	1.55 ± 0.084	-0.168 ± 0.022	1.72 ± 0.14
GCGGAC	-0.751 ± 0.049	1.33 ± 0.11	-0.511 ± 0.04	1.46 ± 0.045
GGGGGC	-0.722 ± 0.011	1.77 ± 0.043	-0.503 ± 0.012	1.87 ± 0.12
UAUUCU	-0.432 ± 0.069	1.7467 ± 0.0014	-0.275 ± 0.051	1.89 ± 0.094
GCGUAU	-0.304 ± 0.056	1.48 ± 0.043	0.0112 ± 0.012	1.72 ± 0.12
CACUGU	-0.215 ± 0.023	1.709 ± 0.017	0.0975 ± 0.08	1.83 ± 0.11
CGGAAA	-0.619 ± 0.028	1.16 ± 0.075	-0.44 ± 0.058	1.28 ± 0.09
GAUCAA	-0.23 ± 0.07	1.57 ± 0.054	0.0757 ± 0.065	1.75 ± 0.052
CCUUAG	-0.183 ± 0.044	1.64 ± 0.026	0.161 ± 0.06	1.83 ± 0.12
CCUUAA	-0.397 ± 0.009	1.45 ± 0.092	-0.161 ± 0.043	1.63 ± 0.12
AGAAGA	-0.764 ± 0.056	1.36 ± 0.023	-0.515 ± 0.035	1.57 ± 0.14
UAAUAG	-0.126 ± 0.087	1.667 ± 0.0048	-0.0799 ± 0.024	1.83 ± 0.099
AAACUA	-0.338 ± 0.065	1.49 ± 0.031	-0.0568 ± 0.0064	1.65 ± 0.11
